In the test the target is histidine-tagged HIV-1 integrase protein (IN) (HIV-1) (UniProt P04585). Nature of the test: cell-based or functional assay.

“And” between values parts separate entries of the source, which are not always exact repeats. Identical values can stand only once.

In the case of “Rev 13-23 peptide (Rev-derived peptide, as used in the IN activity assay) (from UniProt P04618 13-23)”, the inhibition of IN enzymatic activity is 60 % inhibition and 70 % inhibition. On to “Rev 53-67 peptide (Rev-derived peptide, as used in the IN activity assay) (from UniProt P04618 53-67)”, for which the inhibition of IN enzymatic activity is 60 % inhibition and 70 % inhibition.
